Data published in publication PMC4404499 (The Biochemical journal, 2014).

Key:
Experiment in all cases: pull-down
GST-tagged TRIM3 L55A = target: T1, GST-tagged TRIM3 L55A (mouse, UniProt Q9R1R2 1-744, L55A)
T1 sequence (looked up): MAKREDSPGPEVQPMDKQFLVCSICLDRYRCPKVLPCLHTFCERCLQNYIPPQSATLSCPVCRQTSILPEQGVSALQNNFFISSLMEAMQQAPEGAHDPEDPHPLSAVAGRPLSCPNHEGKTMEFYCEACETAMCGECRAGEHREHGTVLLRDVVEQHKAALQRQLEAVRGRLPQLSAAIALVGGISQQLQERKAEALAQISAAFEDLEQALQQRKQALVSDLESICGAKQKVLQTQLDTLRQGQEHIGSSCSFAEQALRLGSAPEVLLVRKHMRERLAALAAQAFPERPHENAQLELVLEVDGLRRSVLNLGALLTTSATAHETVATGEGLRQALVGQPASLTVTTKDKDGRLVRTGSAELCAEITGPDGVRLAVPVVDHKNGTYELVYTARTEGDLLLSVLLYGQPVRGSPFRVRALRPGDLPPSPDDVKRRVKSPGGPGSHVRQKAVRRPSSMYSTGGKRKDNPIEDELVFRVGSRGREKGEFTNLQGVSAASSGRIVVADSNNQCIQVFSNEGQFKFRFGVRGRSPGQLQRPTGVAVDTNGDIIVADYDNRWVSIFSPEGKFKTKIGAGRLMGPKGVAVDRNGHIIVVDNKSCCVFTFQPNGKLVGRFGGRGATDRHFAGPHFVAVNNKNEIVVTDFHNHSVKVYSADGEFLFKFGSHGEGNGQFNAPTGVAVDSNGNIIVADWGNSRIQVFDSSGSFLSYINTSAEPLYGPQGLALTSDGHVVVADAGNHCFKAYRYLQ

GST-tagged TRIM3 N48A = target: T2, GST-tagged TRIM3 N48A (mouse, UniProt Q9R1R2 1-744, N48A)
T2 sequence (looked up): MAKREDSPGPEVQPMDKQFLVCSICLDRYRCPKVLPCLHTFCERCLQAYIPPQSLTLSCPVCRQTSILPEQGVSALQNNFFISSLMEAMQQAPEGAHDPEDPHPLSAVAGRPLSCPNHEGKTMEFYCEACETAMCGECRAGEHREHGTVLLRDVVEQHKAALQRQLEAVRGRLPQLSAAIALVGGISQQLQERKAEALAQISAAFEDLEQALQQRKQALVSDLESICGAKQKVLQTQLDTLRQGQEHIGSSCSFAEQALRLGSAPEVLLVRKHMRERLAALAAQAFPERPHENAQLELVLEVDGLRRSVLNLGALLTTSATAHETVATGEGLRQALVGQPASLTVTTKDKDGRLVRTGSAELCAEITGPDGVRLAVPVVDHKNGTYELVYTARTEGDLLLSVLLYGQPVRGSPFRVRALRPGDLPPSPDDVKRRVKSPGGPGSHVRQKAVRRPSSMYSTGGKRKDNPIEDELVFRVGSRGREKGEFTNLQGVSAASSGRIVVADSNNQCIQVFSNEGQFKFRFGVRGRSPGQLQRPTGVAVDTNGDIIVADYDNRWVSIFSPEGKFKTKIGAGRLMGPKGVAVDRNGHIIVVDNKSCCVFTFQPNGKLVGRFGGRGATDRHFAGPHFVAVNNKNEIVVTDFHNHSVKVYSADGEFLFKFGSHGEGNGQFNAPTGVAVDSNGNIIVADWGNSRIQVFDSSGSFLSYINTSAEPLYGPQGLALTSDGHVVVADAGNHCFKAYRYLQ

GST-tagged TRIM3 I50A = target: T3, GST-tagged TRIM3 I50A (mouse, UniProt Q9R1R2 1-744, I50A)
T3 sequence (looked up): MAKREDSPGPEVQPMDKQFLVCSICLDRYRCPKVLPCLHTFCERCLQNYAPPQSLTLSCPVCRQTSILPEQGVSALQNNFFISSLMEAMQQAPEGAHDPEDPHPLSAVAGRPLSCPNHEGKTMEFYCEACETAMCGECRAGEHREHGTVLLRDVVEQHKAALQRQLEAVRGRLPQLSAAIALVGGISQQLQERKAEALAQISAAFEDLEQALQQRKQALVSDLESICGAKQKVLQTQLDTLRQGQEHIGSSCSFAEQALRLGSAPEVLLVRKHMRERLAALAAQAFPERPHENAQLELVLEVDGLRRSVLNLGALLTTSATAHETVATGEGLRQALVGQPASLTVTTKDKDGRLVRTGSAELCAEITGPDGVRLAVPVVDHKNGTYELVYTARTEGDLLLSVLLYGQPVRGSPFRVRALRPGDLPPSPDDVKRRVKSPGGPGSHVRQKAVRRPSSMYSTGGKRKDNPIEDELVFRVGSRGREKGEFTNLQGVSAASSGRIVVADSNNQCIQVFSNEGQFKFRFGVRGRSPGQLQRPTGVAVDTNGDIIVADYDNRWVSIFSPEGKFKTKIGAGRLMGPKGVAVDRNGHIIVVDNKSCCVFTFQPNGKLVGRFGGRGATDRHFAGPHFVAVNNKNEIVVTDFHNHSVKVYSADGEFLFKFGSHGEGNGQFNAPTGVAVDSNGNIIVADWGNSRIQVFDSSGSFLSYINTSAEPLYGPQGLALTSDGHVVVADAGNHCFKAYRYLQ

GST-tagged TRIM3 Y49A = target: T4, GST-tagged TRIM3 Y49A (mouse, UniProt Q9R1R2 1-744, Y49A)
T4 sequence (looked up): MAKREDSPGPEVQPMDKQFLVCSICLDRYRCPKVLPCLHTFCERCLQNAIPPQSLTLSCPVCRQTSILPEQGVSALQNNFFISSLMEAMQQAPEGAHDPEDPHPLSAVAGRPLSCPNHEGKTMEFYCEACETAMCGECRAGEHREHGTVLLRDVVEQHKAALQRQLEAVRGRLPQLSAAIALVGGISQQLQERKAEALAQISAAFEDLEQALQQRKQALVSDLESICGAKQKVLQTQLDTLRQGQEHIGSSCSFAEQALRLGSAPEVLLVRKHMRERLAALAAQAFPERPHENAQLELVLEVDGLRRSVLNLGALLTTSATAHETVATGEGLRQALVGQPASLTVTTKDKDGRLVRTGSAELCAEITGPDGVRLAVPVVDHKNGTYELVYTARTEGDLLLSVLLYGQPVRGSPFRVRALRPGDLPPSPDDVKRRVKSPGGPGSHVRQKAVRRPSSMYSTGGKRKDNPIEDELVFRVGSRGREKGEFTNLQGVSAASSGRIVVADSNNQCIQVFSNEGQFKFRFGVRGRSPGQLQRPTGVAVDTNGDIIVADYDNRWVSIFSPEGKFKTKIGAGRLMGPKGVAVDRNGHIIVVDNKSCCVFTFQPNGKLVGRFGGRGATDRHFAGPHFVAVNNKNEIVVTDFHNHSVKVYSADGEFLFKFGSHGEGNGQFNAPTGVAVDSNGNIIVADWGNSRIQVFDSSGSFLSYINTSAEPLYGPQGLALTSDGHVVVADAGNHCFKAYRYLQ

Measured: binding result

B1: His-tagged p21 (wild-type) (natural protein, UniProt P39689 1-159, looked up)
chain: MSNPGDVRPVPHRSKVCRCLFGPVDSEQLRRDCDALMAGCLQEARERWNFDFVTETPLEGNFVWERVRSLGLPKVYLSPGSRSRDDLGGDKRPSTSSALLQGPAPEDHVALSLSCTLVSERPEDSPGGPGTSQGRKRRQTSLTDFYHSKRRLVFCKRKP
binds: all assays above
